Consider 3 molecules from publication PMC12685370, “Loop-mediated regulation and base flipping drive RNA cleavage by human mitochondrial PNPase” (Nucleic Acids Research, 2025).

As a reminder, the stoichiometry N is a count of units in the complex or per binding partner.

The target in series [1] is T1, hPNPase (human polynucleotide phosphorylase), hPNPase-TS (Homo sapiens, UniProt Q8TCS8).
T1 construct: gene PNPT1; residues 46-783, mitochondrial targeting signal removed, C-terminal Twin-Strep-tag kept, expressed in MEXi-293E cells, homotrimer
T1 sequence (Q8TCS8 46-783): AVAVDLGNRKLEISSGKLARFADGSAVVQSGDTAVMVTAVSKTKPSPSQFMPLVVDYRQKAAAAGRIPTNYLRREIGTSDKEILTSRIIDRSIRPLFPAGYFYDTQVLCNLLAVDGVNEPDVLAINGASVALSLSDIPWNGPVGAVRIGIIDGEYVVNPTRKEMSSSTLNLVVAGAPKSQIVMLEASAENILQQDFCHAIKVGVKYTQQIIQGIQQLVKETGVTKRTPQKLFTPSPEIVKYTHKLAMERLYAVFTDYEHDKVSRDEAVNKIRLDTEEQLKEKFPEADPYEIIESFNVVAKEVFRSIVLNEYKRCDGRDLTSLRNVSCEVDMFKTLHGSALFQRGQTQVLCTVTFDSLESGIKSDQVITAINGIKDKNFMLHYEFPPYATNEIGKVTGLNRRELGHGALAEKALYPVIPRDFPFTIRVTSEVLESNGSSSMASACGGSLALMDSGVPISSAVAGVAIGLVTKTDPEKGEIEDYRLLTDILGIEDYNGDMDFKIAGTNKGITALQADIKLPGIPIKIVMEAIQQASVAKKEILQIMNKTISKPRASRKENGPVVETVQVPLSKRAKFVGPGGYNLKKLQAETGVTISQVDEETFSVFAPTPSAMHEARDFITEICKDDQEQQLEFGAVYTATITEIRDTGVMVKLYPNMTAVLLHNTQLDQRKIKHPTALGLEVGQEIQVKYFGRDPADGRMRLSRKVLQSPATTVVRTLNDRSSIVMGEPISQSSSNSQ
Nature of the series: cryo-EM structure. The class given is binding. The conditions noted are these: 2 mM NaH2PO4, 2 mM MgCl2, pH 8.0; active site of PH2 domain (S482-484, H450, R446), no RNA; co-substrate of phosphorolysis; also in 9NO0 with PT5 RNA.

Series [2] has as its target T2, hPNPase (human mitochondrial polynucleotide phosphorylase) (Homo sapiens, UniProt Q8TCS8 46-783).
T2 sequence: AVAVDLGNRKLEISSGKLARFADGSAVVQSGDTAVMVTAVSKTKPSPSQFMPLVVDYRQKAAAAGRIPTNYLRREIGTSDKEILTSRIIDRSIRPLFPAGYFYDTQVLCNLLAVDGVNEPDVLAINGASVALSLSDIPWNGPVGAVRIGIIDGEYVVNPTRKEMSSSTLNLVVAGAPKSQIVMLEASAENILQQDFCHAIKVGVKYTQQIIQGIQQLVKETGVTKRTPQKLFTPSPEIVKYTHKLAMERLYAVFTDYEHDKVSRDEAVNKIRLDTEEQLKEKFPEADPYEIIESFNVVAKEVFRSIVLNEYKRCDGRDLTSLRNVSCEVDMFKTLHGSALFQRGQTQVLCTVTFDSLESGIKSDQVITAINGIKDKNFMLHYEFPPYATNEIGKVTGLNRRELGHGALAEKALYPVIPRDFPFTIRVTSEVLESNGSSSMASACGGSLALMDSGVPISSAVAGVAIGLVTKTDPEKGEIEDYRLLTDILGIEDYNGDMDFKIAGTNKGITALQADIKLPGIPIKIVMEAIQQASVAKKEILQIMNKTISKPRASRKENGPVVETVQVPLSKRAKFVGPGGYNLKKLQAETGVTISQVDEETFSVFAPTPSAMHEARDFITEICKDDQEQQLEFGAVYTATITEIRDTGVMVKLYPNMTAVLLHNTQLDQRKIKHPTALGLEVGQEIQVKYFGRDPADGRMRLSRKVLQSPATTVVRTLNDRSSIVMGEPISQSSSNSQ
Description: cryo-EM structure; sulfate in place of phosphate, Mg2+; pre-catalytic state, 2.2 A, 6 nt modelled; Protein SEC buffer: 20 mM HEPES-NaOH pH 8.0, 150 mM NaCl, 1 mM MgCl2, 1 mM DTT, 1% glycerol; competition as in RNA degradation assay (conditions not in material); sulfate 2 mM in the assay replacing phosphate. Conditions: protein: recombinant; tags: C-terminal Twin-Strep-tag; chain copies: 3; label: 5'-FAM; single strand.

Series [3] concerns the molecule itself. Description: cryo-EM structure; single-particle cryo-EM of 1.5 uM hPNPase-TS in RNA degradation buffer (10 mM HEPES pH 8.0, 50 mM NaCl, 2 mM MgCl2, 2 mM DTT, 2 mM NaH2PO4); apo (with Pi), RNA loading state (PT5 RNA) and pre-catalytic state (10 mM Na2SO4, 0.1 mM NaH2PO4, RNA); refined in C1.

In the case of `O=P(O)(O)O` [Pi, phosphate], the cryo-EM structure entry in series [1] was “The phosphate ion is present in each protomer and coordinated by S482-484, H450, and R446”.

B1: FAM_PNP_RNA_long (ssRNA)
RNA: CACAACACACACCACACACACAUAAAACAAAACAGCUACGCCAUCCUCCCCCCAAUCUA
As to B1, the binding result in series [2] is “binds”.

B2: human polynucleotide phosphorylase (hPNPase), amino acids 46-783, with C-terminal Twin-Strep-tag (enzyme, UniProt Q8TCS8 46-783, looked up)
chain: AVAVDLGNRKLEISSGKLARFADGSAVVQSGDTAVMVTAVSKTKPSPSQFMPLVVDYRQKAAAAGRIPTNYLRREIGTSDKEILTSRIIDRSIRPLFPAGYFYDTQVLCNLLAVDGVNEPDVLAINGASVALSLSDIPWNGPVGAVRIGIIDGEYVVNPTRKEMSSSTLNLVVAGAPKSQIVMLEASAENILQQDFCHAIKVGVKYTQQIIQGIQQLVKETGVTKRTPQKLFTPSPEIVKYTHKLAMERLYAVFTDYEHDKVSRDEAVNKIRLDTEEQLKEKFPEADPYEIIESFNVVAKEVFRSIVLNEYKRCDGRDLTSLRNVSCEVDMFKTLHGSALFQRGQTQVLCTVTFDSLESGIKSDQVITAINGIKDKNFMLHYEFPPYATNEIGKVTGLNRRELGHGALAEKALYPVIPRDFPFTIRVTSEVLESNGSSSMASACGGSLALMDSGVPISSAVAGVAIGLVTKTDPEKGEIEDYRLLTDILGIEDYNGDMDFKIAGTNKGITALQADIKLPGIPIKIVMEAIQQASVAKKEILQIMNKTISKPRASRKENGPVVETVQVPLSKRAKFVGPGGYNLKKLQAETGVTISQVDEETFSVFAPTPSAMHEARDFITEICKDDQEQQLEFGAVYTATITEIRDTGVMVKLYPNMTAVLLHNTQLDQRKIKHPTALGLEVGQEIQVKYFGRDPADGRMRLSRKVLQSPATTVVRTLNDRSSIVMGEPISQSSSNSQ
notes: human polynucleotide phosphorylase (hPNPase), amino acids 46-783, without the N-terminal mitochondrial targeting signal; gene codon optimized for human cell lines; S1 domain not modelled in the structures; Cloned into the vector pDSG103 (IBA); Homotrimer in all cryo-EM reconstructions; also called hPNPase-TS; human mitochondrial PNPase; source: MEXi-293E cells, transfected, purified …
As to B2, in series [3], the “stoichiometry N” value stood at 3.
